Measurements as given in PMC12527940, “Conformational plasticity of a BiP–GRP94 chaperone complex” (Nature Structural & Molecular Biology, 2025).
“And” between values parts separate entries of the source, which are not always exact repeats. Identical values can stand only once.

What was measured:
[1] = target: His6-tagged BiP (residues 27–655) (UniProt P20029); test: pull-down; Ni-NTA pull-down of His6-tagged BiP protein (4 µM) with 4 µM Strep-tagged or untagged GRP94 protein; 60 min at 37 °C, 50 mM HEPES pH 7.5, 50 mM NaCl, 2 mM MgCl2, 50 µM ATP, 3 µM BSA; Coomassie bands quantified
[2] = target: Strep–linker–TEV site–GRP94 (73–802) (UniProt P08113); test: negative-stain EM; 16 µM BiP and 32 µM HT2 reacted with 32 µM HyT36, 30 min at 37 °C with 50 µM ATP, then 16 µM GRP94 Δ72; GraFix (5–45% glycerol, 0.5% glutaraldehyde), fraction 12; single-particle negative stain, models fitted with Rosetta at 20 Å
BiP-E243K = BiP-E243K (UniProt P20029); test: pull-down; Ni-NTA pull-down of His6-tagged BiP protein (4 µM) with 4 µM Strep-tagged or untagged GRP94 protein; 60 min at 37 °C, 50 mM HEPES pH 7.5, 50 mM NaCl, 2 mM MgCl2, 50 µM ATP, 3 µM BSA; Coomassie bands quantified
[3] = target: the molecule itself; test: cross-linking; XL-MS: DSBU crosslinking (4 µM each), high-molecular-weight SDS–PAGE bands digested and analysed by LC–MS/MS, 5% FDR on residue pairs; GRP94 Δ72^noPT samples with 100 µM PU-WS13

GRP94 Δ72^noPT (from UniProt P08113 73-802) (domain or fragment)
percent reduction of GRP94 bound, against GRP94 Δ72 with its tag [1]: 65%

GRP94-K463E (Strep-tagged GRP94 Δ72 interface I mutant) (from UniProt P08113 73-802) (domain or fragment)
percent reduction of GRP94 Δ72 copurified, against the wild-type pair [1]: 85%

GRP94-K467E (Strep-tagged GRP94 Δ72 interface I mutant) (from UniProt P08113 73-802) (domain or fragment)
percent reduction of GRP94 Δ72 copurified, against the wild-type pair [1]: 85%

His6-tagged BiP (residues 27–655) (from UniProt P20029 27-655) (natural protein)
stoichiometry N (BiP per GRP94 dimer) [2]: 1 and 2

Strep-tagged GRP94 Δ72-R116G interface II mutant (from UniProt P08113 73-802) (domain or fragment)
percent decrease of binding, against GRP94 Δ72 [1]: 30%

Strep–linker–TEV site–GRP94 (73–802) (from UniProt P08113 73-802) (domain or fragment)
percent reduction of GRP94 Δ72 copurified, against the wild-type pair (BiP-E243K): 85% | stoichiometry N [2]: 2

B1: Strep-tagged GRP94 FL (residues 23–802) (natural protein, mouse (cDNA of C2C12 cells), UniProt P08113 23-802, looked up)
chain: DEVDVDGTVEEDLGKSREGSRTDDEVVQREEEAIQLDGLNASQIRELREKSEKFAFQAEVNRMMKLIINSLYKNKEIFLRELISNASDALDKIRLISLTDENALAGNEELTVKIKCDKEKNLLHVTDTGVGMTREELVKNLGTIAKSGTSEFLNKMTEAQEDGQSTSELIGQFGVGFYSAFLVADKVIVTSKHNNDTQHIWESDSNEFSVIADPRGNTLGRGTTITLVLKEEASDYLELDTIKNLVRKYSQFINFPIYVWSSKTETVEEPLEEDEAAKEEKEESDDEAAVEEEEEEKKPKTKKVEKTVWDWELMNDIKPIWQRPSKEVEEDEYKAFYKSFSKESDDPMAYIHFTAEGEVTFKSILFVPTSAPRGLFDEYGSKKSDYIKLYVRRVFITDDFHDMMPKYLNFVKGVVDSDDLPLNVSRETLQQHKLLKVIRKKLVRKTLDMIKKIADEKYNDTFWKEFGTNIKLGVIEDHSNRTRLAKLLRFQSSHHSTDITSLDQYVERMKEKQDKIYFMAGSSRKEAESSPFVERLLKKGYEVIYLTEPVDEYCIQALPEFDGKRFQNVAKEGVKFDESEKTKESREATEKEFEPLLNWMKDKALKDKIEKAVVSQRLTESPCALVASQYGWSGNMERIMKAQAYQTGKDISTNYYASQKKTFEINPRHPLIRDMLRRIKEDEDDKTVMDLAVVLFETATLRSGYLLPDTKAYGDRIERMLRLSLNIDPEAQVEEEPEEEPEDTSEDAEDSEQDEGEEMDAGTEEEEEETEKESTEKDEL
notes: cloned from C2C12 complementary DNA into pET21d; also called Strep–GRP94 FL; FL GRP94 wild-type protein; source: E. coli BL21(DE3), purified (StrepTrap HP, SEC); not shown: Strep, N-terminal, kept
binding result [3]: binds | percent less GRP94 pulled down, against GRP94 Δ72 [1]: 75%
